{"source": "paper doi:10.1101/2019.12.18.881771", "about": "(bioRxiv, 2019)", "molecules": {"B1": {"name": "β-Pix GBD peptide (aa 528-548) (peptide)", "peptide": "ALEEDAQILKVIEAYCTSAKT"}, "B2": {"name": "β-Pix 494-555 (domain or fragment, mouse, UniProt Q9ES28-4 599-660, looked up)", "chain": "DLSKSPKTMKKLLPKRKPERKPSDEEFAVRKSTAALEEDAQILKVIEAYCTSAKTRQTLNSS"}, "B3": {"name": "β-Pix coiled-coil domain, wild type (domain or fragment, mouse, UniProt Q9ES28-4 691-751, looked up)", "chain": "EEKSLVDTVYALKDEVQELRQDNKKMKKSLEEEQRARKDLEKLVRKVLKNMNDPAWDETNL"}, "B4": {"name": "FITC-labelled β-Pix GBD Y542D peptide (peptide, UniProt Q9ES28-4 633-653, looked up)", "peptide": "{FITC}-ALEEDAQILKVIEADCTSAKT"}, "B5": {"name": "GIT1 coiled-coil domain, wild type (domain or fragment, mouse, UniProt Q68FF6 426-483, looked up)", "chain": "SDGAVTLQEYLELKKALATSEAKVQQLMKVNSSLSDELRRLQREIHKLQAENLQLRQP"}}, "key": {"[1]": {"molecular_target": "GIT1 FAT domain (aa 640-770) (mouse) (UniProt Q68FF6)", "sequence (Q68FF6 640-770)": "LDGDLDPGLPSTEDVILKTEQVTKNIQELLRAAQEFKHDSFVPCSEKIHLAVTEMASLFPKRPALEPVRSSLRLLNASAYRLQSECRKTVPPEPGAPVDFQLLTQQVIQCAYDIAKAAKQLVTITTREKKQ", "assay": "ITC"}, "[2]": {"molecular_target": "FITC-labelled β-Pix GBD peptide, wild type (mouse)", "assay": "fluorescence polarisation"}, "GIT1 SHD domain": {"molecular_target": "T1, GIT1 SHD domain (mouse, UniProt Q68FF6 260-371)", "T1 sequence (looked up)": "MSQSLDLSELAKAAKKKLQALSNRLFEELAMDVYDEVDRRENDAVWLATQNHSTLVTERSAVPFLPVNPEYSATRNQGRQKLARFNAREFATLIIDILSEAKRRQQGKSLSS", "assay": "ITC"}, "[3]": {"molecular_target": "T2, GIT1 GAP-ANK-SHD (GAS) tandem (mouse, UniProt Q68FF6 1-371)", "T2 sequence (looked up)": "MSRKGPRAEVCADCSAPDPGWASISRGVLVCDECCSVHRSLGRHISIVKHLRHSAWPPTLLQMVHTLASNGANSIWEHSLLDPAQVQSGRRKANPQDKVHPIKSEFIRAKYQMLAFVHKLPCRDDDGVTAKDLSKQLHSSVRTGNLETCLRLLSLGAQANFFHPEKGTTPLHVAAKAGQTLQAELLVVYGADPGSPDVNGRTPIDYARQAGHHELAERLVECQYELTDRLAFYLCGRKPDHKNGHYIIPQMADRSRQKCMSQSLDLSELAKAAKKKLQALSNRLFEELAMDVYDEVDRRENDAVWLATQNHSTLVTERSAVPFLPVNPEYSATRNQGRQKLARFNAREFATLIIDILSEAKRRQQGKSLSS", "assay": "ITC"}, "SEC-MALS": {"molecular_target": "the molecule itself", "assay": "SEC-MALS"}, "[4]": {"molecular_target": "T2, GIT1 GAP-ANK-SHD (GAS) tandem", "assay": "fluorescence polarisation"}}, "note": "No end group written: not given here. *: point of attachment. FITC = O=C1OC2(c3ccc(O)cc3Oc3cc(O)ccc32)c2ccc(NC(=S)*)cc21"}
{"molecule": "Paxillin LD4 motif (aa 261-282) (peptide)", "values": [{"measurement": "Kd", "setting": "[1]", "value": 3000, "unit": "nM"}]}
{"molecule": "GIT2 GAP-ANK-SHD (GAS) tandem, wild type, purified (domain or fragment)", "values": [{"measurement": "Kd", "setting": "[2]", "value": 27, "unit": "nM"}]}
{"molecule": "Paxillin LD2 motif (peptide)", "values": [{"measurement": "Kd", "setting": "[1]", "value": 164000, "unit": "nM"}]}
{"molecule": "B1", "values": [{"measurement": "Kd", "setting": "GIT1 SHD domain", "value": "~180", "unit": "nM"}, {"measurement": "Kd", "setting": "[3]", "value": "~15", "unit": "nM"}]}
{"molecule": "B2", "values": [{"measurement": "Kd", "setting": "GIT1 SHD domain", "value": "~150", "unit": "nM"}]}
{"molecule": "B3", "values": [{"measurement": "stoichiometry N", "setting": "SEC-MALS", "value": 3}]}
{"molecule": "B4", "values": [{"measurement": "Kd", "setting": "[4]", "value": "~76400", "unit": "nM"}]}
{"molecule": "B5", "values": [{"measurement": "stoichiometry N", "setting": "SEC-MALS", "value": 2}]}
